Target: Vimentin (endogenous, WT fibroblasts) (mouse, UniProt P20152 2-466)
Experiment: proximity ligation assay in WT fibroblasts with anti-BAD and anti-Vimentin (FIG. 8F)

Vimentin (endogenous, WT fibroblasts), sequence (P20152 2-466 limits assumed): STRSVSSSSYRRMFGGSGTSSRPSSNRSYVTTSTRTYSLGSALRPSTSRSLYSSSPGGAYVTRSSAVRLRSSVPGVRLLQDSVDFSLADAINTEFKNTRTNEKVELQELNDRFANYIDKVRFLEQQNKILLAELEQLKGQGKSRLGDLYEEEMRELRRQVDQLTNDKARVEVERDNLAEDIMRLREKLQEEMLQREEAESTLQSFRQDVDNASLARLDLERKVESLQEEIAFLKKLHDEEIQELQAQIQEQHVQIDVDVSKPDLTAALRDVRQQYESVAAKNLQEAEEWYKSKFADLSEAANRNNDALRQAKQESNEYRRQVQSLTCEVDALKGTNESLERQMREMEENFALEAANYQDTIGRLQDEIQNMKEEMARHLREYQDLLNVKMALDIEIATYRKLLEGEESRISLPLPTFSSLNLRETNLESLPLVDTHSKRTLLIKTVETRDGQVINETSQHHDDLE

B1: BCL-2-associated death promoter (BAD), endogenous in WT fibroblasts (other, mouse, UniProt Q61337 1-204, looked up)
chain: MGTPKQPSLAPAHALGLRKSDPGIRSLGSDAGGRRWRPAAQSMFQIPEFEPSEQEDASATDRGLGPSLTEDQPGPYLAPGLLGSNIHQQGRAATNSHHGGAGAMETRSRHSSYPAGTEEDEGMEEELSPFRGRSRSAPPNLWAAQRYGRELRRMSDEFEGSFKGLPRPKSAGTATQMRQSAGWTRIIQSWWDRNLGKGGSTPSQ
notes: Endogenous protein inside fixed cells (microscopy, proximity ligation assay); also called WT BAD
B1: no binding.

Source: patent US20190192484A1 (UNIVERSITY OF CHICAGO, published 2019)
